Tested on: IL10 signaling pathway (STAT3)
Assay: SEAP colorimetric assay in reporter cells with RISE10 constructs
Type: cell-based
Method: FIG. 8 provides an example of CISC signaling through the IL10 signaling pathway. Cells were treated with IL10 or rapamycin at varying doses.
The signaling activity of RISE10 constructs (FIGS. 2 and 7) was examined. InvivoGen HEK-BLUE™ IL2 reporter cells, in which production of STAT3 (from IL10 signaling) leads to release of secreted embryonic alkaline phosphatase (SEAP), were used. The reporter cells were transfected with different levels of IL10, rapamycin and the RISE10 construct with a synthetic linker, (G4S)×3 (“CISC10 RaL”), or rapamycin and the RISE10 construct with IL10 hinge domains (“CISC10 RhL”). A colorimetric enzyme assay was performed to quantify the secreted embryonic alkaline phosphatase, and the results are shown in FIG. 8.

B1: IL10: interleukin IL10 used as stimulus for comparison in the reporter assay (protein, UniProt P22301 19-178, looked up)
Interleukin-10: SPGQGTQSENSCTHFPGNLPNMLRDLRDAFSRVKTFFQMKDQLDNLLLKESLLEDFKGYLGCQALSEMIQFYLEEVMPQAENQDPDIKAHVNSLGENLKTLRLRLRRCHRFLPCENKSKAVEQVKNAFNKLQEKGIYKAMSEFDIFINYIEAYMTMKIRN
B1 was tested. Which “IL10 dose giving similar peak plateau (SEAP)” value did it give?
The value was 10 ng/mL.
